In PMC8965161, “Suppression of ATG4B by copper inhibits autophagy and involves in Mallory body formation” (Redox Biology, 2022):

B1: recombinant ATG4B protein without His-Tag (enzyme, human, UniProt Q9Y4P1 1-393, looked up)
chain: MDAATLTYDTLRFAEFEDFPETSEPVWILGRKYSIFTEKDEILSDVASRLWFTYRKNFPAIGGTGPTSDTGWGCMLRCGQMIFAQALVCRHLGRDWRWTQRKRQPDSYFSVLNAFIDRKDSYYSIHQIAQMGVGEGKSIGQWYGPNTVAQVLKKLAVFDTWSSLAVHIAMDNTVVMEEIRRLCRTSVPCAGATAFPADSDRHCNGFPAGAEVTNRPSPWRPLVLLIPLRLGLTDINEAYVETLKHCFMMPQSLGVIGGKPNSAHYFIGYVGEELIYLDPHTTQPAVEPTDGCFIPDESFHCQHPPCRMSIAELDPSIAVGFFCKTEDDFNDWCQQVKKLSLLGGALPMFELVELQPSHLACPDVLNLSLDSSDVERLERFFDSEDEDFEILSL
notes: ATG4B, cysteine protease, human; source: recombinant, purified, without His-Tag

How the values were obtained:
[1] = target: ATG4B^C0-GFP (UniProt Q9Y4P1); experiment: differential detergent fractionation and western blot under non-reduced condition, oligomer band quantified (self-oligomer formation in cells); design: reference not given here; settings: HEK-293T cells, read off a plot
[2] = target: the molecule itself; experiment: non-reduced SDS-PAGE with Coomassie staining; ATG4B protein (4 ug) treated with designed concentrations of copper ions at 4 C for 30 min, stopped with 10 mM NEM; non-reduced condition

Row | Molecule | response ([1]; Insoluble fraction, 1 mM copper ions (CuCl2) for 6 h) | response ([1]; Insoluble fraction, no CuCl2) | response ([1]; Soluble fraction, 1 mM copper ions (CuCl2) for 6 h) | response ([1]; Soluble fraction, no CuCl2) | binding result [2]
1 | ATG4B-GFP (from UniProt Q9Y4P1) C0 (all 14 cysteines to serines) | 0.55 | 0.39 | 0.15 | 0.068 | 
2 | B1 |  |  |  |  | binds
